Consider 34 substances from US11306156.

Test [1] has as its target tissue factor (TF) antigen (UniProt P13726). Description: SPR; log ratio against wild-type D3H44 Fab. A general note: In SPR one partner is held on a chip, and binding of the other changes the refractive index at the surface.
For test [2] the target is unchanged. As to the kind of experiment: SPR; log ratio against wild-type D3H44 Fab; estimated value.
Test [3] has the same target. As to the kind of experiment: SPR (ProteOn XPR36): Fab captured via His tag on anti-penta-His, TF as analyte, 1:1 fit.
Test [4] shares this target. Description: SPR (ProteOn XPR36): Fab captured via His tag on anti-penta-His, TF as analyte, 1:1 fit; estimated value, taken from the same Fab with another L chain tag.
For test [5] the target is unchanged. As to the kind of experiment: SPR, Fab captured on anti-penta-His surface, TF as analyte, 1:1 fit; Fab batch C.
Test [6] has the same target. Description: SPR, Fab captured on anti-penta-His surface, TF as analyte, 1:1 fit; Fab batch C; against wild-type D3H44 Fab.
The target is the same in test [7]. As to the kind of experiment: SPR, against wild-type D3H44 Fab; batch C (+).
The target is the same in test [8]. Description: SPR (ProteOn XPR36), Fab captured on anti-penta-His, TF injected, 1:1 fit; batch C (+).
Test [9] has the same target. Description: SPR, same assay; reference wild-type D3H44 Fab.
For test [10] the target is unchanged. As to the kind of experiment: SPR (ProteOn XPR36), Fab captured on anti-penta His surface, TF injected as analyte, 1:1 model.
Test [11] has the same target. As to the kind of experiment: SPR, Fab captured on anti-penta-His, TF as analyte, 1:1 fit.
The target is the same in test [12]. Description: vs wild-type D3H44 Fab (KD 0.157 nM); SPR, Fab captured on anti-penta-His, TF as analyte.

Chain of tissue factor (TF) antigen (P13726 33-251 limits assumed): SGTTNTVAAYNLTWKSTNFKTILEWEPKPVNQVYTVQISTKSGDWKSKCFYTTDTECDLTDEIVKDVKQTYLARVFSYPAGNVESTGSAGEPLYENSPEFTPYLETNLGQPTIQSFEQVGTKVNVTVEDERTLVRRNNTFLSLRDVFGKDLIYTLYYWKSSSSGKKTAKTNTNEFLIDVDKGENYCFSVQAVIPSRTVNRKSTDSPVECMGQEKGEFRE

As to “D3H44 Fab heterodimer, H L143D_K145T_Q179E / L T178R (H1L1 of LCCA sets 9579 and 9575)”, the Change in KD with respect to wild type (-(log(KD design) - log(KD wt))) in test [1] and in test [2] was -0.25 each time. Also, the Kd in [3] and in test [4] was 0.28 nM each time.

Turning to “D3H44 Fab heterodimer, H L143E_K145T_Q179D / L Q124R_Q160K_T178R (H1L1 of LCCA set 9623)”, the Change in KD with respect to wild type (-(log(KD design) - log(KD wt))) in [2] is 0.39. For the same substance, the Kd in test [4] is 0.06 nM.

As to “D3H44 Fab heterodimer, H L143E_K145T_Q179D / L Q124R_T178R (H1L1 of LCCA sets 9635 and 9632)”, the Change in KD with respect to wild type (-(log(KD design) - log(KD wt))) in test [1] and in test [2] was 0.04 each time. Besides, the Kd in [3] and in test [4] was 0.14 nM throughout.

As for “D3H44 Fab heterodimer, H L143E_K145T_Q179D / L T178R (H1L1 of LCCA set 9641)”, the Change in KD with respect to wild type (-(log(KD design) - log(KD wt))) in [2] is 0.17. In test [4], the Kd was 0.11 nM.

Turning to “D3H44 Fab heterodimer, H L143E_K145T_Q179E / L Q124K_T178R (H1L1 of LCCA sets 9645 and 9648)”, the Change in KD with respect to wild type (-(log(KD design) - log(KD wt))) in [1] and in test [2] was 0.05 each time. Moreover, the Kd in [3] and in test [4] was 0.14 nM in each case.

For the substance “D3H44 Fab heterodimer, H L143E_K145T_Q179E / L Q124R_T178K (H1L1 of LCCA set 9657)”, the Change in KD with respect to wild type (-(log(KD design) - log(KD wt))) in test [2] was -0.08. Besides, the Kd in test [4] was 0.19 nM.

As for “D3H44 Fab heterodimer, H L143E_K145T_Q179E / L Q124R_T178R (H1L1 of LCCA sets 9679 and 9663)”, the Change in KD with respect to wild type (-(log(KD design) - log(KD wt))) in [1] and in [2] was -0.23 each time. Further, the Kd in test [3] and in [4] was 0.27 nM in each case.

Take “D3H44 Fab heterodimer, H L143E_K145T_Q179E / L T178R (H1L1 of LCCA sets 9683 and 9684)”: the Change in KD with respect to wild type (-(log(KD design) - log(KD wt))) in test [1] and in [2] was -0.28 throughout. For the same substance, the Kd in [3] and in [4] was 0.3 nM in each case.

Consider “D3H44 H1L1 Fab heterodimer of LCCA Set # 9644 (H1 L143E_K145T_Q179D_S188L; L1 Q124R_Q160K_T178R)”, for which the Kd in [5] turned out to be 0.13 nM. In [6], this substance gave a change in median KD compared to wild type, -(log(KD design)-log(KD wt)) of 0.09.

In test [5], “D3H44 H1L1 Fab heterodimer of LCCA Set # 9784 (H1 Q179K; L1 Q124E_T178E)” yielded a Kd of 0.14 nM. This substance gave a change in median KD compared to wild type, -(log(KD design)-log(KD wt)) in test [6] of 0.05.

On to “D3H44 H1L1 Fab heterodimer of LCCA Set # 9809 (H1 Q179R; L1 Q124E_T178E)”, for which the Kd in [5] worked out at 0.14 nM. In addition, the change in median KD compared to wild type, -(log(KD design)-log(KD wt)) in [6] is 0.04.

As to “D3H44 H1L1 Fab heterodimer of LCCA Set # 9831 (H1 S186K; L1 Q124E_Q160E_T180E)”, the Kd in test [5] was found to be 0.13 nM. The change in median KD compared to wild type, -(log(KD design)-log(KD wt)) in [6] is 0.09.

“D3H44 H1L1 Fab heterodimer of LCCA Set # 9901 (H1 S186R; L1 Q124E_T180E)”: the Kd in test [5] was 0.07 nM. Besides, the change in median KD compared to wild type, -(log(KD design)-log(KD wt)) in [6] was determined as 0.36.

With “D3H44 H1L1 Fab heterodimer of LCCA Set # 9987 (H1 L143E_K145T; L1 Q124R_T178R)”, in test [5], the Kd stood at 0.11 nM. In addition, in test [6], the change in median KD compared to wild type, -(log(KD design)-log(KD wt)) is 0.15.

Turning to “H1L1 Fab heterodimer of LCCA Set # 9779 and 9780 (D3H44 Fab; H1 Q179K, L1 Q124E_S131T_T178Y_T180E)”, the Change in median values of KD of h1l1 Fab heterodimer compared to wild type (-(log(KD design)-log(KD wt))) in test [7] was -0.01. The substance also had a Kd in [8] of 0.16 nM.

Regarding “H1L1 Fab heterodimer of LCCA Set # 9781 and 9782 (D3H44 Fab; H1 Q179K, L1 Q124E_S176L_T180E)”, the Change in median values of KD of h1l1 Fab heterodimer compared to wild type (-(log(KD design)-log(KD wt))) in [7] worked out at 0.28. The Kd in test [8] was 0.08 nM.

The substance “H1L1 Fab heterodimer of LCCA Set # 9803 and 9804 (D3H44 Fab; H1 Q179R, L1 Q124E_S131T_T178F_T180E)” registered a Change in median values of KD of h1l1 Fab heterodimer compared to wild type (-(log(KD design)-log(KD wt))) in test [7] of 0.14. The same substance yielded a Kd in test [8] of 0.11 nM.

In turn, “H1L1 Fab heterodimer of LCCA Set # 9805 and 9806 (D3H44 Fab; H1 Q179R, L1 Q124E_S131T_T178Y_T180E)” showed a Change in median values of KD of h1l1 Fab heterodimer compared to wild type (-(log(KD design)-log(KD wt))) in test [7] of 0.07. This substance also gave a dissociation constant (Kd) in [8] of 0.13 nM.

In test [7], “H1L1 Fab heterodimer of LCCA Set # 9843 and 9844 (D3H44 Fab; H1 S186K, L1 Q124E_S131T_T178F_T180E)” showed a Change in median values of KD of h1l1 Fab heterodimer compared to wild type (-(log(KD design)-log(KD wt))) of -0.03. In test [8], this substance came in with a Kd of 0.17 nM.

Take “H1L1 Fab heterodimer of LCCA Set # 9845 and 9846 (D3H44 Fab; H1 S186K, L1 Q124E_S131T_T178Y_T180E)”: the Change in median values of KD of h1l1 Fab heterodimer compared to wild type (-(log(KD design)-log(KD wt))) in [7] was determined as 0.09. For the same substance, the Kd in test [8] amounted to 0.13 nM.

“H1L1 Fab heterodimer of LCCA Set # 9906 (D3H44 Fab; H1 S188G, L1 S176L)” had a Change in median values of KD of h1l1 Fab heterodimer compared to wild type (-(log(KD design)-log(KD wt))) in [7] of 0.14. The Kd in [8] turned out to be 0.11 nM.

In the case of “H1L1 Fab heterodimer of LCCA Set # 9914 (D3H44 Fab; H1 S188L_V190F, L1 WT)”, the Change in median values of KD of h1l1 Fab heterodimer compared to wild type (-(log(KD design)-log(KD wt))) in test [7] is 0.01. Also, the Kd in test [8] was determined as 0.15 nM.

In [9], “H1L1 Fab heterodimer of LCCA set 9354 (D3H44 Fab, H1 L124R_D146N_Q179K, L1 V133G_Q160E_S176D_T180E)” came in with a change in median KD of H1L1 Fab heterodimer compared to wild type (-(log(KD design)-log(KD wt))) of -0.04. Moreover, the Kd in test [10] stood at 0.17 nM.

In [9], “H1L1 Fab heterodimer of LCCA set 9358 (D3H44 Fab, H1 L124R_D146N_Q179K, L1 V133G_S176D_T178E)” had a change in median KD of H1L1 Fab heterodimer compared to wild type (-(log(KD design)-log(KD wt))) of -0.07. In test [10], this substance came in with a Kd of 0.18 nM.

Consider “H1L1 Fab heterodimer of LCCA set 9359 (D3H44 Fab, H1 L124R_D146N_Q179K, L1 V133G_S176D_T178E_T180E)”, for which the change in median KD of H1L1 Fab heterodimer compared to wild type (-(log(KD design)-log(KD wt))) in test [9] was -0.01. In addition, in test [10], the Kd turned out to be 0.16 nM.

On to “H1L1 Fab heterodimer of LCCA set 9516 (D3H44 Fab, H1 L124R_S186R, L1 Q124E_V133G_S176D_T178D_T180E)”, for which the change in median KD of H1L1 Fab heterodimer compared to wild type (-(log(KD design)-log(KD wt))) in [9] is -0.21. This substance returned a Kd in test [10] of 0.26 nM.

The substance “H1L1 Fab heterodimer of LCCA set 9746 (D3H44 Fab, H1 L45P_K145T_Q179E, L1 P44F_S131K)” returned a Kd in test [11] of 0.35 nM. This substance had a change in median KD compared to wild type, -(log(KD design)-log(KD wt)) in test [12] of -0.35.

“H1L1 Fab heterodimer of LCCA set 10552 (D3H44 Fab, H1 L45P_L143E_K145T_H172R, L1 P44F_Q124R_Q160K_T178R)” had a Kd in test [11] of 0.29 nM. The substance also came in with a change in median KD compared to wild type, -(log(KD design)-log(KD wt)) in test [12] of -0.27.

“H1L1 Fab heterodimer of LCCA sets 9546 and 9547 (D3H44 Fab, H1 L124R_S186R, L1 V133G_S176D_T180E)” gave a dissociation constant (Kd) in test [11] of 0.24 nM. In test [12], this substance came in with a change in median KD compared to wild type, -(log(KD design)-log(KD wt)) of -0.18.

Take “H1L1 Fab heterodimer of LCCA sets 9667, 9671, 9675, 9679 and 9682 (D3H44 Fab, H1 L143E_K145T_Q179E, L1 Q124R_T178R)”: in test [11], the Kd amounted to 0.27 nM. For the same substance, in test [12], the change in median KD compared to wild type, -(log(KD design)-log(KD wt)) was -0.23.

As for “H1L1 Fab heterodimer of LCCA sets 9735 and 9737 (D3H44 Fab, H1 L143R, L1 Q124E_V133E)”, in [11], the Kd was determined as 0.2 nM. For the same substance, in test [12], the change in median KD compared to wild type, -(log(KD design)-log(KD wt)) was -0.09.

With “H1L1 Fab heterodimer of LCCA sets 9755 and 9756 (D3H44 Fab, H1 Q179K, L1 Q124E_L135W_Q160E_T180E)”, the Kd in [11] turned out to be 0.28 nM. The change in median KD compared to wild type, -(log(KD design)-log(KD wt)) in test [12] is -0.26.

For “H1L1 Fab heterodimer of LCCA sets 9757 and 9758 (D3H44 Fab, H1 Q179K, L1 Q124E_Q160E_T178E)”, in [11], the Kd was determined as 0.29 nM. This substance also returned a change in median KD compared to wild type, -(log(KD design)-log(KD wt)) in [12] of -0.27.

In [11], “H1L1 Fab heterodimer of LCCA sets 9869, 9871, 9874, 9876 and 9879 (D3H44 Fab, H1 S186R, L1 Q124E_Q160E_T180E)” came in with a Kd of 0.05 nM. Besides, the change in median KD compared to wild type, -(log(KD design)-log(KD wt)) in test [12] came out at 0.51.

As usually defined, the Kd is the free concentration of one partner at which half of the binding sites on the other are occupied at equilibrium, for simple one-to-one binding.
